# Assay results reported in the nanobody polyreactivity screen of Harvey et al. (2022).
# Test: yeast display, Sf9 membrane polyspecificity reagent, FACS + sequencing; frameworks hold sequencing errors
# Summary of the method: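 After 36–48 hours of galactose induction, yeast (Saccharomyces cerevisiae BJ5465) displaying a synthetic nanobody library were stained at 4 °C for 1 hour with 10% biotinylated, detergent-solubilized Sf9 membrane reagent. Streptavidin microbeads enriched the stained cells before FACS sorting into low and high (top ~1%) gates on anti-HA and streptavidin fluorescence. Each clone's polyreactivity label reflects its gate of origin.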
row,Sequence,polyreactivity (PSR sort gate)
1,QVQLEESGGGLVQAGGSLRLSCAASGFIFDSYAMGWYRQAPGKERELVAAISWSGGRTYYADSVKGRFTISRDNAKNTVYLQMNSLKPEDTAVYYCNVLVHSLSGRKYDYWGQGTQVTVSS,high polyreactivity
2,QVQLEESGGGLVQAGGSLRLSCAASGFTFYYYTMGWYRQAPGKERELVAAITWRGGSTNYADSVKGRFTISRDNAKNTVYLQMNSLKPEEPAVYYCAAVTYWFWPGMDYWGQGTQVTVSS,low polyreactivity
3,QVQLEESGGGLVQAGGSLRLSCAASGFTLEYYAMGWYRKAPGKERELVAVITESDGNTYYADSVKGRFTISRDNAKNTVYLQMNSLKPEDTAVYYCAAEYRDGYRFSYDYWGQGTQVTVSS,low polyreactivity
4,QVQLEESGGGLVQAGGSLRLSCAASGGIFIFYAMGWYRQAPGKERELVAAISNVSSTNYADSVKGRFTISRDNAKNSVYLQMNSLKPEDTAVYYCNAVGVPSEYYSWGHGTQVTVSS,low polyreactivity
5,QVQLEESGGGLVQAGGSLRLSCAASGGIFWYNAMGWYRQAPGKERELVADISSSGITYYADSVKGRFTISRDNAKNTVYLQMNSLKPEDTAVYYCAADSTTRPGLRVYDDYDYWGQGTQVTVSS,low polyreactivity
6,QVQLEESGGGLVQAGGSLRLSCAASGGTFLAYALGWYRQAPGKERELVATITSGGSTNYADSVKGRFTISRDNAKNTVYLQMNSLKPEDTAVYYCAASGRDFIAESPYDYWGQGTQVTVSS,low polyreactivity
7,QVQLEESGGGLVQAGGSLRLSCAASGIIIRYYAMGWYRQAPRKERELVDSITARSGSTYYADSVKGRFSISRDYAKNTVYFQMNSLKPEDTAVYYCAKSGKPARYYYWGQGTQVTVSS,high polyreactivity
8,QVQLEESGGGLVQAGGSLRLSCAASGITFSLYVMGWFRPAPGKESELVATISFNVASTYADSVKGRFTISRVNAKNTVYLQMYSLTPEDTAVYYCNADTYWYRDSRYDYCGQGTQVTVSS,low polyreactivity
9,QVQLEESGGGLVQAGGSLRLSCAASGITIWGYTMGWYRQAPGKERELVAAITSTGSTYYADSVKGRFTISRDNAKNTVYLQMNSLKPEDTSVYYCAATRGSSEYYYWGQGTQVTVSS,low polyreactivity
10,QVQLEESGGGLVQAGGSLRLSCAASGLIFGWYAMGWYRQAPGKERELVAAISRRGGSTYYADSVKGRFTISRDNAKNSVFLQMNSLKPEDTAVYYCNADTYGDSYDYWGQGTQVTVSS,high polyreactivity
11,QVQLEESGGGLVQAGGSLRLSCAASGLTFPSNDMGCYRQAPGKERELVAASSKRGGRTYYADYVKGRFTISRDNAKNTVYLQMNSLKPEDTAVYYCATPYAFPGTVQYAGYNYWGQGTQVTVSS,high polyreactivity
12,QVQLEESGGGLVQAGGSLRLSCAASGLTFSRYAMGSYRQATGKERELVAAISIRGGNTYYADSVKGRFTISRDNAKNTVYLQMNSLKPEDTAVYYCNAVVYHYTLDHEYDYWGQGTQVTVSS,high polyreactivity
13,QVQLEESGGGLVQAGGSLRLSCAASGLTFVQYTMGWYRQAPGKERELVAVITSASSTNYADSVKGRFTISRDNAKNTVYLQMNSLKPEDPAVYYCNATTYPYYTNSYQYEYWGQGTQVTVSS,low polyreactivity
14,QVQLEESGGGLVQAGGSLRLSCAASGLTFVYNTMGMYRQAPGKERELVAAINWSGGRTYYADSVKGRFTISRDNAKNTVYLQMNSLKPEDTAVYYCAALYVPNTPTYKYDYWGQGTQVTVSS,low polyreactivity
15,QVQLEESGGGLVQAGGSLRLSCAASGLTIFVNAMGWYRQAPGKERELVATISGGGSTYYADSVKARFTISRDNAKNTVYLQMNSLKPEDTAVYYCATVWPHRFRYEYWGQGTQVTVSS,low polyreactivity
16,QVQLEESGGGLVQAGGSLRLSCAASGNILFKYAMGWNRQAPGKERELVASITSRGGSTYYADSVKGRFTISRDNAKNTVYLQMNSLKPEDTAVYYCAVDADEVTFDYWGQGTQVTVSS,low polyreactivity
17,QVQLEESGGGLVQAGGSLRLSCAASGNTFPGYAMGWYRQAPGKERELVARISRSGGSTYYADSVKGRFTISRDNAKKTVYLQMNSLKPEDTAVYYCAAGAYRSGGYSFDYWGQGTQVTVSS,low polyreactivity
18,QVQLEESGGGLVQAGGSLRLSCAASGNTFTEYAMGWYRPAPGKEWELVASITGSGGSTYADSVKGRFTISRDNAKNSVYLQMNSLIAEDTAVYYCAKDTRYEYVGSEYGYWGQGTQVTVSS,low polyreactivity
19,QVQLEESGGGLVQAGGSLRLSCAASGRIFATNAMGWYRPAPATERELVAAISSSGGPTYYADSVKGRFTISRDNAKNTVYLQMNSLIREATAVYYCARVPITNDQYSHYYYWGQGTQVTVSS,high polyreactivity
20,QVQLEESGGGLVQAGGSLRLSCAASGRIFGINALGWYRQAPGQERALVAAISRSGSRTYYADSVKGRFTISRDNAMNTVYLQMNSLKPEDTALYYCNARHQRFYAQPGDYWGQGTQVTVSS,high polyreactivity
21,QVQLEESGGGLVQAGGSLRLSCAASGRIFGWYTMGWYRQAPGKERELVAAINFSGSRTYYADSVKGRFTISRDNAKNTVYLQMNSLKPEDTAVYYCNAVYHQFREEYWGQGTQVTVSS,high polyreactivity
22,QVQLEESGGGLVQAGGSLRLSCAASGRIFGYYDMGWYRQAPGKERELVARITRGGGTTYYADSVKGRFTISRDNAKNTVYLQMNSLKPEDTAVYYCAAVRSWWHTHYNYDYWGQGTQVTVSS,high polyreactivity

row,Sequence,polyreactivity (PSR sort gate)
1,QVQLEESGGGLVQAGGSLRLSCAASGRIFHVNAMGWYRPAPGKERELVAAISTSGGRTYYADSVKGRFTISRDNAKNTVYLQMNSLKPEDTAVYYCAKRWPLYVDPTRMDYWGQGTQVTVSS,high polyreactivity
2,QVQLEESGGGLVQAGGSLRLSCAASGRIFPRYAMGWYRQAPGKERELVATISSGGSTYYADSVKGRFTISRDNATNTVYLQMNSLTPEDTAVYYCAARKRPYSVINGMDYWGQGTQVTVSS,low polyreactivity
3,QVQLEESGGGLVQAGGSLRLSCAASGRIFRPYAMGWYRQAPGKERELVAAISFSGGSTYYADSVKGRFTISRDNAKNTVYLQMNSLKPEDTAVYYCNKDLYRYPGYDYWGQGTQVTVSS,high polyreactivity
4,QVQLEESGGGLVQAGGSLRLSCAASGRIFSNNVMGWYRQAPGKERELVATISTDGRTNYADSVKGRFTISRDNAKNTVYLQMNSLKPEDTAVYYCAATGVTILLSSKSDYWGQGTQVTVSS,low polyreactivity
5,QVQLEESGGGLVQAGGSLRLSCAASGRIFTGYAMGWYRQAPGKERELVAAIRGSGTSTYYADSVKGRFTISRDNAKNTVYLQMNSLKPEDTAVFYCAADWYTSRGWDWYDYWGQGTQVTVSS,high polyreactivity
6,QVQLEESGGGLVQAGGSLRLSCAASGRIFVRNGMGWYRQAPGKESELVPAITSAGSTNYADSVKGRFTISRDNAKNTVYLQMNSLIPEDTAVYYCATEPSGYYDSYYYFTYSDNYWGQGTQVTVSS,low polyreactivity
7,QVQLEESGGGLVQAGGSLRLSCAASGRIFWGYAMGWYRQAPGKERELVAGITYSGGSTYYADSVKGRFTISRDNAKNTVYLQMNSLKPEDTAVYYCAADATPGRGVDYWGQGTQVTVSS,high polyreactivity
8,QVQLEESGGGLVQAGGSLRLSCAASGRIFYFNTKGWYRQAPGKERELVAAISRSGTSTYYADSVKGRFTISRDFAKNTVYLQMNSLKPEDTAVYYCAARFGVKRGQYDYWGQGTQVTVSS,high polyreactivity
9,QVQLEESGGGLVQAGGSLRLSCAASGRIFYHYAMGWYRTAPGKERELVAAITSSGAGTYYADSVKGRFTISRDNAKNTVYLQMNSLKPEDTAVYYCAADASRRYRYWYDYWGQGTQVTVSS,high polyreactivity
10,QVQLEESGGGLVQAGGSLRLSCAASGRIFYPYAMGWYRQAPGKERELVAAISRSGGSTYYADSVKGRFTISRDNAKNTVYLQMNSLKPEDTAVYYCATGFYRAISHHGYDYWGQGTQVTVSS,low polyreactivity
11,QVQLEESGGGLVQAGGSLRLSCAASGRILSLYAMGRYRQAPGKERELVAAIRWSGSRTYYADSVKGRFTISRDNAKNTVYLQMNSLKPEDTAVYYCAAESHYPHKPGSDYWGQGTQVTVSS,high polyreactivity
12,QVQLEESGGGLVQAGGSLRLSCAASGRTFDIYAMGWYRQATGKERELVAAISSGGSTYYADSVKGRFTISRDNAKNTVFLQMNSLKPEDTAVYYCAVRWYDQVSRRGIGYYWGQGTQVTVSS,low polyreactivity
13,QVQLEESGGGLVQAGGSLRLSCAASGRTFSSYAMVWYRQAPGKERELVAAINSGGSTNYADSVKGRFTISRDNAKNTVYLQMNSLKPEDTAVYYCNAVTFWGLGYDYWGQGTQVTVSS,low polyreactivity
14,QVQLEESGGGLVQAGGSLRLSCAASGRTFVYYAMGWYRTATGKQRELVAAITSSGSRTYYADSVKGRFTFSRDNAKNTVYLQMNSLKPEDTAVYYCAADYVAHGDYRVLYDYWGQGTQVTVSS,low polyreactivity
15,QVQLEESGGGLVQAGGSLRLSCAASGRTITNYAMGWYRQAPGKERELVASINSGGSTSYADSVKGRFTISRDNAKNTVYLQMNSLKPEDTAVYYCNKRYLKFWGHQYGYWGQGTQVTVSS,high polyreactivity
16,QVQLEESGGGLVQAGGSLRLSCAASGRTSLAYAMGWYRQATGKEMELVAGITSGGNTNYADSVKGRFTISCDNAKNTVYLQMNSLKPEDTAVYYCNKKKRWQWYSDSVLDYLGFYSWGQGTQVTVSS,low polyreactivity
17,QVQLEESGGGLVQAGGSLRLSCAASGSIFAVYAMGWYIQAPGKERELVATISGRGGSTYYADSVKGRFTISRDNAKNTVYLQMNSLKPEDTAVYYCNARVLFRRERMDSWGQGTQVTVSS,high polyreactivity
18,QVQLEESGGGLVQAGGSLRLSCAASGSIFFYYAMGWYRQAPGKERELVAAIRSGTSTNYADSVKGRFTISRDNAKNTVYLQMNSLKPEDTAVYYCAARFPGGCYGMDYWGQGTQVTVSS,low polyreactivity
19,QVQLEESGGGLVQAGGSLRLSCAASGSIFGLYAMGWYRQAPGKERELVAAISARGGSTYYADSVKGRFTISRDNAKNTVYLQMNSLKPEDTAVNYCATRQVSAYSYIYDYWGQGTQVTVSS,high polyreactivity
20,QVQLEESGGGLVQAGGSLRLSCAASGSIFNYYAMGWYRQAPGKERELVAAITTSGGNTYYADSVKGRFTISRDNAKNTVYLQMNSLKPEDTAVYYCNVDARSSYDYWGQGTQVTVSS,low polyreactivity
21,QVQLEESGGGLVQAGGSLRLSCAASGSIFTYYAMGSYRQAPGKERELVARITRGGGTTYYADSVKGRFTISRDNAKNTVYLQMNSLKPEDTAVYYCAADFFAGTPRTFDYWGQGSQVTVSS,high polyreactivity
